Test results as given in doi:10.1101/2024.04.30.591959, “Structural insights into human propionyl-CoA carboxylase (PCC) and 3-methylcrotonyl-CoA carboxylase (MCC)” (bioRxiv, 2024).

Tests used:
Assay in all cases: cryo-EM structure; endogenous holoenzymes co-purified from Expi 293F cells as a mixture of biotin-dependent carboxylases; HBS buffer (20 mM HEPES, pH 7.4, 150 mM NaCl); apo, or pre-incubated with 25 mM NaHCO3, 10 mM MgCl2 and 10 mM propionyl-CoA or acetyl-CoA, 10 mM ATP added before freezing
[1] = target: the molecule itself
[2] = target: T1, human 3-methylcrotonyl-CoA carboxylase α subunit (human (endogenous in Expi 293F), UniProt Q96RQ3 42-725, biotin covalently linked to K681 (AMKM motif of the BCCP domain)); conditions: both partners purified
T1 construct: 3-methylcrotonyl-CoA carboxylase α subunit (MCCα), human, endogenous; holds the BC, BT and BCCP domains; Purified as part of the endogenous α6β6 MCC holoenzyme, in a mixture with the other biotin-dependent carboxylases; also called MCCα; α subunit of MCC; source: endogenous, Expi 293F cells, purified (Strep-Tactin XT resin, size-exclusion chromatography)
T1 sequence (looked up): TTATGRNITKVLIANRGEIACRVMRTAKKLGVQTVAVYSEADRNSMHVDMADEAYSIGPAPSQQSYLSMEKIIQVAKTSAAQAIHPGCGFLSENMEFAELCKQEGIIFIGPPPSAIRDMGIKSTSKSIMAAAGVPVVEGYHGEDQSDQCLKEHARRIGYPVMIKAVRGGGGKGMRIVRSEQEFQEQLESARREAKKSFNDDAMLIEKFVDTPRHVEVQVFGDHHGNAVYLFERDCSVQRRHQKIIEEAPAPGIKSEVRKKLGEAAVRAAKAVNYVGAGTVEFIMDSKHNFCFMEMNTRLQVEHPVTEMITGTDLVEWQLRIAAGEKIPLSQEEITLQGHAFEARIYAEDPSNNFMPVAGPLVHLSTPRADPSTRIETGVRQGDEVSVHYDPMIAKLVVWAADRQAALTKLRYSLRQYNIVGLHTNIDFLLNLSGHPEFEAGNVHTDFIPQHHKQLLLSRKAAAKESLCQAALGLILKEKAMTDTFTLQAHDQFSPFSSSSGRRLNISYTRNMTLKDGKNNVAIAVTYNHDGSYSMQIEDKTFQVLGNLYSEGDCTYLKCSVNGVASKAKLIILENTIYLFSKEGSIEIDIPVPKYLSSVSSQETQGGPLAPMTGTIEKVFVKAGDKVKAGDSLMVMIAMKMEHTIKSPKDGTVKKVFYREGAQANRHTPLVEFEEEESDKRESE

[3] = target: T2, human propionyl-CoA carboxylase α subunit (human (endogenous in Expi 293F), UniProt P05165 53-728, biotin covalently linked to K694 (AMKM motif of the BCCP domain)); conditions: both partners purified
T2 construct: Propionyl-CoA carboxylase α subunit (PCCα), human, endogenous; holds the BC, BT and BCCP domains; Purified as part of the endogenous α6β6 PCC holoenzyme, in a mixture with the other biotin-dependent carboxylases; also called PCCα; α subunit of PCC; source: endogenous, Expi 293F cells, purified (Strep-Tactin XT resin, size-exclusion chromatography)
T2 sequence (looked up): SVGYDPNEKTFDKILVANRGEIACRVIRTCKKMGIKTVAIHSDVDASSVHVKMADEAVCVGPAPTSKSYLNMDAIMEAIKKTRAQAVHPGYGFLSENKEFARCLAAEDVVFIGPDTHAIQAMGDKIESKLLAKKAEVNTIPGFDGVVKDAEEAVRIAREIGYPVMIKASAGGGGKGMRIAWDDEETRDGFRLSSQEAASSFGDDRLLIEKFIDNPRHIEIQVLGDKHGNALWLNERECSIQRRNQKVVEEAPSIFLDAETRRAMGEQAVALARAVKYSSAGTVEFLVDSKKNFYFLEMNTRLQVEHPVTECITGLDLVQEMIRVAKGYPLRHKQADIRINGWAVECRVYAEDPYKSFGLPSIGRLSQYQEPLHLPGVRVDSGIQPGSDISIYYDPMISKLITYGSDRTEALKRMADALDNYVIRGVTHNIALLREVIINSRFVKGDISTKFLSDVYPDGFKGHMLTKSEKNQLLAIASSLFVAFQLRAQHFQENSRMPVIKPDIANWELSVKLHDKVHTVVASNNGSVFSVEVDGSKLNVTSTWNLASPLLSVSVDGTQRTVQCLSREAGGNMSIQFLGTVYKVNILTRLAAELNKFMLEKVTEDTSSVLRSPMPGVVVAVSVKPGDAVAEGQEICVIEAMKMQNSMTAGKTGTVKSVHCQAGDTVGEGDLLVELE

| Binder | stoichiometry N [1] | binding result [2] | binding result [3] |
| --- | --- | --- | --- |
| human 3-methylcrotonyl-CoA carboxylase β subunit (natural protein, human (endogenous in Expi 293F), UniProt Q9HCC0 23-563, looked up, 3-methylcrotonyl-CoA carboxylase β subunit (MCCβ), human, endogenous; CT domain (CT-N and CT-C subdomains); Co-purified with the biotinylated α subunit as the endogenous α6β6 MCC holoenzyme; also called MCCβ; β subunit of MCC; source: endogenous, Expi 293F cells, purified (Strep-Tactin XT resin, size-exclusion chromatography)) YHGDSVASLGTQPDLGSALYQENYKQMKALVNQLHERVEHIKLGGGEKARALHISRGKLLPRERIDNLIDPGSPFLELSQFAGYQLYDNEEVPGGGIITGIGRVSGVECMIIANDATVKGGAYYPVTVKKQLRAQEIAMQNRLPCIYLVDSGGAYLPRQADVFPDRDHFGRTFYNQAIMSSKNIAQIAVVMGSCTAGGAYVPAMADENIIVRKQGTIFLAGPPLVKAATGEEVSAEDLGGADLHCRKSGVSDHWALDDHHALHLTRKVVRNLNYQKKLDVTIEPSEEPLFPADELYGIVGANLKRSFDVREVIARIVDGSRFTEFKAFYGDTLVTGFARIFGYPVGIVGNNGVLFSESAKKGTHFVQLCCQRNIPLLFLQNITGFMVGREYEAEGIAKDGAKMVAAVACAQVPKITLIIGGSYGAGNYGMCGRAYSPRFLYIWPNARISVMGGEQAANVLATITKDQRAREGKQFSSADEAALKEPIIKKFEEEGNPYYSSARVWDDGIIDPADTRLVLGLSFSAALNAPIEKTDFGIFRM | 6 | binds |  |
| human propionyl-CoA carboxylase β subunit (natural protein, human (endogenous in Expi 293F), UniProt P05166 29-539, looked up, Propionyl-CoA carboxylase β subunit (PCCβ), human, endogenous; CT domain (CT-N and CT-C subdomains); Co-purified with the biotinylated α subunit as the endogenous α6β6 PCC holoenzyme; also called PCCβ; β subunit of PCC; source: endogenous, Expi 293F cells, purified (Strep-Tactin XT resin, size-exclusion chromatography)) CSQATSVNERIENKRRTALLGGGQRRIDAQHKRGKLTARERISLLLDPGSFVESDMFVEHRCADFGMAADKNKFPGDSVVTGRGRINGRLVYVFSQDFTVFGGSLSGAHAQKICKIMDQAITVGAPVIGLNDSGGARIQEGVESLAGYADIFLRNVTASGVIPQISLIMGPCAGGAVYSPALTDFTFMVKDTSYLFITGPDVVKSVTNEDVTQEELGGAKTHTTMSGVAHRAFENDVDALCNLRDFFNYLPLSSQDPAPVRECHDPSDRLVPELDTIVPLESTKAYNMVDIIHSVVDEREFFEIMPNYAKNIIVGFARMNGRTVGIVGNQPKVASGCLDINSSVKGARFVRFCDAFNIPLITFVDVPGFLPGTAQEYGGIIRHGAKLLYAFAEATVPKVTVITRKAYGGAYDVMSSKHLCGDTNYAWPTAEIAVMGAKGAVEIIFKGHENVEAAQAEYIEKFANPFPAAVRGFVDDIIQPSSTRARICCDLDVLASKKVQRPWRKHANIPL |  |  | binds |
